Measured values as given in US20140274782A1, “AFFINITY REAGENTS AND METHODS FOR DETECTION, PURIFICATION, AND PROTEOMIC ANALYSIS OF METHYLATED PROTEINS” (The Board of Trustees of the Leland Stanford Junior …, priority 2013, published 2014).

T1: G9a and GLP (Homo sapiens, UniProt Q96KQ7+Q9H9B1)
T1 sequence (Q96KQ7 2-1210 limits assumed): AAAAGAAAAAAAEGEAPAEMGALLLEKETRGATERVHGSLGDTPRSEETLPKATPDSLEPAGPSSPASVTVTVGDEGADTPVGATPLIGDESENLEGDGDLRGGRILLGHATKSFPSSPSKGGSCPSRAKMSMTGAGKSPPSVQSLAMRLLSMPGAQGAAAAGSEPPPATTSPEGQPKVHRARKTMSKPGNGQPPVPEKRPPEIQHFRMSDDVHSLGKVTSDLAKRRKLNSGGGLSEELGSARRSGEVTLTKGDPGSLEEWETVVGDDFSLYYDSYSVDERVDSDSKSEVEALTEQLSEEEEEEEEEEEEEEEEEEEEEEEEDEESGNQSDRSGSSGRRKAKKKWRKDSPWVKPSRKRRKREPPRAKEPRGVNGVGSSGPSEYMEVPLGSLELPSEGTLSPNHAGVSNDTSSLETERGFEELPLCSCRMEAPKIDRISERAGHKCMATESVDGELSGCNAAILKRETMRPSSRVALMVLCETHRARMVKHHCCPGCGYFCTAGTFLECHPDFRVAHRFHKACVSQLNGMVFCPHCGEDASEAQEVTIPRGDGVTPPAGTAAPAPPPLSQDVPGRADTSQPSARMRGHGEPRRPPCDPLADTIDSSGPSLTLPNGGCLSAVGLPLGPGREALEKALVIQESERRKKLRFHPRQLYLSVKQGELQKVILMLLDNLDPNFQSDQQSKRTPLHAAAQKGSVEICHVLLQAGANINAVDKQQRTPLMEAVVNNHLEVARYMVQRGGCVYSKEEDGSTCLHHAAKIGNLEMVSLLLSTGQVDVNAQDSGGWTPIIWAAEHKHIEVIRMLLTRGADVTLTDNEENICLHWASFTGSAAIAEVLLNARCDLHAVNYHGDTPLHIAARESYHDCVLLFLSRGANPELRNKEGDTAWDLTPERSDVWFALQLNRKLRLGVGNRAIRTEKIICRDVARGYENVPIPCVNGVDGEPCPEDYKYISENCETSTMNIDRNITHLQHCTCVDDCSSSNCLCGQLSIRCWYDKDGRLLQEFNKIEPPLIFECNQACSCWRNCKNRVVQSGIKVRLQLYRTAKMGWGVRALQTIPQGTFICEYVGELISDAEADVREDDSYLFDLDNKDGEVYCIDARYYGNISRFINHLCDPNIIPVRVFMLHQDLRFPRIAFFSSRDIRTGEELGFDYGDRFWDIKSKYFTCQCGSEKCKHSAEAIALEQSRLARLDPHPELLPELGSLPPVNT
T1 sequence (Q9H9B1 2-1298 limits assumed): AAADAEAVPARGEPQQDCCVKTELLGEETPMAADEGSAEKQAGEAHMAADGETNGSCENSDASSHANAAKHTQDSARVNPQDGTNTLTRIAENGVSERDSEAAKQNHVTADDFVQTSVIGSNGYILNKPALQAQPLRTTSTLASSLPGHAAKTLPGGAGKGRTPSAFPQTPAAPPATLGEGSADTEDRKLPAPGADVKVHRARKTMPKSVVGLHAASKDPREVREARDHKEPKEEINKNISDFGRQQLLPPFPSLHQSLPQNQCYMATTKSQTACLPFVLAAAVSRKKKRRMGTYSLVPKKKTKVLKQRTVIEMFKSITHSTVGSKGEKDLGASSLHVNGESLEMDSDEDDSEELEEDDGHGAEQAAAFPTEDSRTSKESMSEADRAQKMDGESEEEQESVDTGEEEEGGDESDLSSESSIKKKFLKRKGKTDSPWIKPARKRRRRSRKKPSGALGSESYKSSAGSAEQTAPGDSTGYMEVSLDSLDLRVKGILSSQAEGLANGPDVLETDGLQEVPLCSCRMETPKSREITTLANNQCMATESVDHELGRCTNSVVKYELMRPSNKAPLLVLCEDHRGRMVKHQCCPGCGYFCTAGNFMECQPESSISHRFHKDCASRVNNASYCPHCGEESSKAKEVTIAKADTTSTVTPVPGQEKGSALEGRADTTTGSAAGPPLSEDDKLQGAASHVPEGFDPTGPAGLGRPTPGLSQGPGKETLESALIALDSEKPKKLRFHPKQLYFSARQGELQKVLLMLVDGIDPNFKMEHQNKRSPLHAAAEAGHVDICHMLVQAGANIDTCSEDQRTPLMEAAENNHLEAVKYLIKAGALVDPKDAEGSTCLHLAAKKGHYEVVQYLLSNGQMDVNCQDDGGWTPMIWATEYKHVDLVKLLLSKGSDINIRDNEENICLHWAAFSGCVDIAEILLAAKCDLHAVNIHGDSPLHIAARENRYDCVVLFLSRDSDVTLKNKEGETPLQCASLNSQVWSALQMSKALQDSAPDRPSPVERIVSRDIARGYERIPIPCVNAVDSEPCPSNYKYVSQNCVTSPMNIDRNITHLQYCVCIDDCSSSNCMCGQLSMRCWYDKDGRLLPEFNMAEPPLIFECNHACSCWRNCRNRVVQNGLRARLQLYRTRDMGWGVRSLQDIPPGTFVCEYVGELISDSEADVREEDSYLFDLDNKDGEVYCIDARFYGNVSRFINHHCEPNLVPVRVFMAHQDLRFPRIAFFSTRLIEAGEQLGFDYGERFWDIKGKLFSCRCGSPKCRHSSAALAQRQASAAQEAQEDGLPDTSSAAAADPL


Experiments:
3×MBT domain of L3MBTL1 = assay: Triple SILAC pull-down, 3xMBT/3xMBTD355N ratio (cytoplasmic, nuclear and chromatin fractions of 293T cells); assay type: binding, human; conditions: SILAC ratio, pull-down 3xMBT vs 3xMBTD355N; for 3xMBT/D355N UNC Heavy: experiment with UNC0638 in heavy SILAC media; for 3xMBT/D355N UNC Light: experiment with UNC0638 in light SILAC media;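 as to all read-outs here: proteins quantified with MaxQuant, requiring at least two unique peptides and quantification in both label directions, normalized to the mean of proteins from a digested loading control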
G9a and GLP = biological target: T1, G9a and GLP; assay: Triple SILAC pull-down after UNC0638 treatment of 293T cells, DMSO/UNC0638 ratio of protein captured by 3×MBT; assay type: cell-based; design: cells were treated for 24 hours with UNC0638 at 2.5 μM or DMSO vehicle control; endogenous in cells; host or cells: HEK 293T; conditions: for Relative to UNC0638 UNC Heavy / Relative to UNC0638 UNC Light: SILAC ratio DMSO/UNC0638 of protein pulled down with 3xMBT; for Relative to UNC0638 UNC Heavy: UNC0638 in heavy SILAC media; for Relative to UNC0638 UNC Light: UNC0638 in light SILAC media; for Relative to UNC0638 Average: average of UNC Light and UNC Heavy experiments;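 as to all read-outs here: mass spectrometry (Q-Exactive) SILAC quantitation, DMSO/UNC0638 ratio computed after subtracting 3×MBTD355N mutant pull-down background, only proteins with at least twofold 3×MBT over mutant signal considered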

Molecule	3xMBT/D355N UNC Heavy (3×MBT domain of L3MBTL1) [log base 2]	3xMBT/D355N UNC Light (3×MBT domain of L3MBTL1) [log base 2]	Relative to UNC0638 UNC Heavy (G9a and GLP) [log base 2]	Relative to UNC0638 UNC Light (G9a and GLP) [log base 2]	Relative to UNC0638 Average (G9a and GLP) [log base 2]
SRSF11 (protein, UniProt Q05519 2-484, looked up) Serine/arginine-rich splicing …: SNTTVVPSTAGPGPSGGPGGGGGGGGGGGGTEVIQVTNVSPSASSEQMRTLFGFLGKIDELRLFPPDDSPLPVSSRVCFVKFHDPDSAVVAQHLTNTVFVDRALIVVPYAEGVIPDEAKALSLLAPANAVAGLLPGGGLLPTPNPLTQIGAVPLAALGAPTLDPALAALGLPGANLNSQSLAADQLLKLMSTVDPKLNHVAAGLVSPSLKSDTSSKEIEEAMKRVREAQSLISAAIEPDKKEEKRRHSRSRSRSRRRRTPSSSRHRRSRSRSRRRSHSKSRSRRRSKSPRRRRSHSRERGRRSRSTSKTRDKKKEDKEKKRSKTPPKSYSTARRSRSASRERRRRRSRSGTRSPKKPRSPKRKLSRSPSPRRHKKEKKKDKDKERSRDERERSTSKKKKSKDKEKDRERKSESDKDVKQVTRDYDEEEQGYDSEKEKKEEKKPIETGSPKTKECSVEKGTGDSLRESKVNGDDHHEEDMDMSD	2.45	2.22	0.15	0.34	0.24
SEC24A (protein, UniProt O95486 1-1093, looked up) Protein transport protein …: MSQPGIPASGGAPASLQAQNGAALASGSPYTNGPVQNALLSSQESVSQGYNFQLPGSYPHPIPAKTLNPVSGQSNYGGSQGSGQTLNRPPVASNPVTPSLHSGPAPRMPLPASQNPATTPMPSSSFLPEANLPPPLNWQYNYPSTASQTNHCPRASSQPTVSGNTSLTTNHQYVSSGYPSLQNSFIKSGPSVPPLVNPPLPTTFQPGAPHGPPPAGGPPPVRALTPLTSSYRDVPQPLFNSAVNQEGITSNTNNGSMVVHSSYDEIEGGGLLATPQLTNKNPKMSRSVGYSYPSLPPGYQNTTPPGATGVPPSSLNYPSGPQAFTQTPLGANHLTTSMSGLSLQPEGLRVVNLLQERNMLPSTPLKPPVPNLHEDIQKLNCNPELFRCTLTSIPQTQALLNKAKLPLGLLLHPFKDLVQLPVVTSSTIVRCRSCRTYINPFVSFLDQRRWKCNLCYRVNDVPEEFLYNPLTRVYGEPHRRPEVQNATIEFMAPSEYMLRPPQPPVYLFVFDVSHNAVETGYLNSVCQSLLDNLDLLPGNTRTKIGFITFDSTIHFYGLQESLSQPQMLIVSDIEDVFIPMPENLLVNLNESKELVQDLLKTLPQMFTKTLETQSALGPALQAAFKLMSPTGGRMSVFQTQLPTLGVGALKPREEPNHRSSAKDIHMTPSTDFYKKLALDCSGQQVAVDLFLLSGQYSDLASLGCISRYSAGSVYYYPSYHHQHNPVQVQKLQKELQRYLTRKIGFEAVMRIRCTKGLSIHTFHGNFFVRSTDLLSLPNVNPDAGYAVQMSVEESLTDTQLVSFQSALLYTSSKGERRIRVHTLCLPVVSTLNDVFLGADVQAISGLLANMAVDRSMTASLSDARDALVNAVIDSLSAYRSSVLSNQQPGLMVPFSLRLFPLFVLALLKQKSFQTGTNARLDERIFAMCQVKNQPLVYLMLTTHPSLYRVDNLSDEGALNISDRTIPQPPILQLSVEKLSRDGAFLMDAGSVLMLWVGKNCTQNFLSQVLGVQNYASIPQPMTDLPELDTPESARIIAFISWLREQRPFFPILYVIRDESPMKANFLQNMIEDRTESALSYYEFLLHIQQQVNK	1.94	2.29	0.60	−0.11	0.24
